Experimental data taken from the supplement of paper PMC5998384.

Key:
HeLa Kyoto [1] = assay: melting temperature (median over replicates), in situ; higher = more thermally stable
HeLa Kyoto [2] = assay: solubility change mitosis vs G1/S (difference of NP-40 vs SDS log2 ratios) (log2 ratio difference); higher = more soluble in mitosis
HeLa Kyoto [3] = assay: solubility in G1/S (NP-40 vs SDS abundance) (log2 ratio); higher = more soluble; conditions: cell cycle stage: G1/S
HeLa Kyoto [4] = assay: thermal stability score vs G1/S (z-score of summed log2 fold changes over temperatures); higher = more thermally stable than in G1/S
[5] = cell cycle stage: early G1 (4.5 h after nocodazole release)
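Wherever melting temperature (median over replicates), in situ is given: HeLa Kyoto cells synchronized by double thymidine or nocodazole block, proteins quantified by TMT10plex mass spectrometry, three independent biological replicates.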
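Wherever solubility change mitosis vs G1/S (difference of NP-40 vs SDS log2 ratios) is given: synchronized HeLa Kyoto cells (double thymidine block for G1/S, nocodazole release for mitosis), protein amounts in NP-40 versus SDS lysates quantified by mass spectrometry, three biological replicates.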
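Wherever solubility in G1/S (NP-40 vs SDS abundance) is given: HeLa Kyoto cells arrested at G1/S by double thymidine block, proteins quantified by TMT10plex mass spectrometry in mild NP-40 versus SDS extracts, three biological replicates.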
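Wherever thermal stability score vs G1/S (z-score of summed log2 fold changes over temperatures) is given: synchronized HeLa Kyoto cells, proteins quantified by TMT10plex mass spectrometry, three biological replicates, mitosis taken 0.5 h after nocodazole release, G1/S directly after double thymidine block.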

Substance | melting temperature (HeLa Kyoto [1]; cell cycle stage: G1/S) [°C] | melting temperature (HeLa Kyoto [1]; cell cycle stage: mitosis) [°C] | solubility change mitosis (log2) (HeLa Kyoto [2]) | solubility in G1/S (log2) (HeLa Kyoto [3]) | thermal stability score (HeLa Kyoto [4]; [5]) | thermal stability score (HeLa Kyoto [4]; cell cycle stage: mitosis)
MDALNRNQIGPGCQTQTMVQKGPLDLIETGKGLKVQTDKPHLVSLGSGRLSTAITLLPLEEGRTVIGSAARDISLQGPGLAPEHCYIENLRGTLTLYPCGNACTIDGLPVRQPTRLTQGCMLCLGQSTFLRFNHPAEAKWMKSMIPAGGRAPGPPYSPVPAESESLVNGNHTPQTATRGPSACASHSSLVSSIEKDLQEIMDSLVLEEPGAAGKKPAATSPLSPMANGGRYLLSPPTSPGAMSVGSSYENTSPAFSPLSSPASSGSCASHSPSGQEPGPSVPPLVPARSSSYHLALQPPQSRPSGARSESPRLSRKGGHERPPSPGLRGLLTDSPAATVLAEARRATESPRLGGQLPVVAISLSEYPASGALSQPTSIPGSPKFQPPVPAPRNKIGTLQDRPPSPFREPPGSERVLTTSPSRQLVGRTFSDGLATRTLQPPESPRLGRRGLDSMRELPPLSPSLSRRALSPLPTRTTPDPKLNREVAESPRPRRWAAHGASPEDFSLTLGARGRRTRSPSPTLGESLAPHKGSFSGRLSPAYSLGSLTGASPCQSPCVQRKLSSGDLRVPVTRERKNSITEISDNEDDLLEYHRRQRQERLREQEMERLERQRLETILNLCAEYSRADGGPEAGELPSIGEATAALALAGRRPSRGLAGASGRSSEEPGVATQRLWESMERSDEENLKEECSSTESTQQEHEDAPSTKLQGEVLALEEERAQVLGHVEQLKVRVKELEQQLQESAREAEMERALLQGEREAERALLQKEQKAVDQLQEKLVALETGIQKERDKEAEALETETKLFEDLEFQQLERESRVEEERELAGQGLLRSKAELLRSIAKRKERLAILDSQAGQIRAQAVQESERLARDKNASLQLLQKEKEKLTVLERRYHSLTGGRPFPKTTSTLKEMEKLLLPAVDLEQWYQELMAGLGTGPAAASPHSSPPPLPAKASRQLQVYRSKMDGEATSPLPRTRSGPLPSSSGSSSSSSQLSVATLGRSPSPKSALLTQNGTGSLPRNLAATLQDIETKRQLALQQKGQQVIEEQRRRLAELKQKAAAEAQCQWDALHGAAPFPAGPSGFPPLMHHSILHHLPAGRERGEEGEHAYDTLSLESSDSMETSISTGGNSACSPDNMSSASGLDMGKIEEMEKMLKEAHAEKNRLMESREREMELRRQALEEERRRREQVERRLQSESARRQQLVEKEVKMREKQFSQARPLTRYLPIRKEDFDLKTHIESSGHGVDTCLHVVLSSKVCRGYLVKMGGKIKSWKKRWFVFDRLKRTLSYYVDKHETKLKGVIYFQAIEEVYYDHLRSAAKKRFFRFTMVTESPNPALTFCVKTHDRLYYMVAPSAEAMRIWMDVIVTGAEGYTQFMN [PHLDB1] | 50.8 | 51.1 | -0.13 | 0.0569 | 0.702 | 1.01
MDAPGALAQTAAPGPGRKELKIVIVGDGGCGKTSLLMVYSQGSFPEHYAPSVFEKYTASVTVGSKEVTLNLYDTAGQEDYDRLRPLSYQNTHLVLICYDVMNPTSYDNVLIKWFPEVTHFCRGIPMVLIGCKTDLRKDKEQLRKLRAAQLEPITYMQGLSACEQIRAALYLECSAKFRENVEDVFREAAKVALSALKKAQRQKKRRLCLLL [RHOF] | 53.8 | 53 | -0.104 | -0.0436 | 0.493 | 0.369
MDAPKAGYAFEYLIETLNDSSHKKFFDVSKLGTKYDVLPYSIRVLLEAAVRNCDGFLMKKEDVMNILDWKTKQSNVEVPFFPARVLLQDFTGIPAMVDFAAMREAVKTLGGDPEKVHPACPTDLTVDHSLQIDFSKCAIQNAPNPGGGDLQKAGKLSPLKVQPKKLPCRGQTTCRGSCDSGELGRNSGTFSSQIENTPILCPFHLQPVPEPETVLKNQEVEFGRNRERLQFFKWSSRVFKNVAVIPPGTGMAHQINLEYLSRVVFEEKDLLFPDSVVGTDSHITMVNGLGILGWGVGGIETEAVMLGLPVSLTLPEVVGCELTGSSNPFVTSIDVVLGITKHLRQVGVAGKFVEFFGSGVSQLSIVDRTTIANMCPEYGAILSFFPVDNVTLKHLEHTGFSKAKLESMETYLKAVKLFRNDQNSSGEPEYSQVIQINLNSIVPSVSGPKRPQDRVAVTDMKSDFQACLNEKVGFKGFQIAAEKQKDIVSIHYEGSEYKLSHGSVVIAAVISCTNNCNPSVMLAAGLLAKKAVEAGLRVKPYIRTSLSPGSGMVTHYLSSSGVLPYLSKLGFEIVGYGCSICVGNTAPLSDAVLNAVKQGDLVTCGILSGNKNFEGRLCDCVRANYLASPPLVVAYAIAGTVNIDFQTEPLGTDPTGKNIYLHDIWPSREEVHRVEEEHVILSMFKALKDKIEMGNKRWNSLEAPDSVLFPWDLKSTYIRCPSFFDKLTKEPIALQAIENAHVLLYLGDSVTTDHISPAGSIARNSAAAKYLTNRGLTPREFNSYGARRGNDAVMTRGTFANIKLFNKFIGKPAPKTIHFPSGQTLDVFEAAELYQKEGIPLIILAGKKYGSGNSRDWAAKGPYLLGVKAVLAESYEKIHKDHLIGIGIAPLQFLPGENADSLGLSGRETFSLTFPEELSPGITLNIQTSTGKVFSVIASFEDDVEITLYKHGGLLNFVARKFS [IREB2] | 50.6 | 49.8 | 0.0731 | 0.000606 | -0.342 | -0.0931
MDC1 | 51.2 | 52.1 | 0.434 | -0.295 | -1.53 | 1.05
MDCGSVGGQRTQRLPGRQRLLFLPVGLSGRPGGSETSARRCLSALSDGLGALRPRAPAARGGVSRASPLLLLLLVPSPRLAAAAPRRQLGDWERSRLGYAAPPAGRSSAWRCSPGVAAAAGALPQYHGPAPALVSCRRELSLSAGSLQLERKRRDFTSSGSRKLYFDTHALVCLLEDNGFATQQAEIIVSALVKILEANMDIVYKDMVTKMQQEITFQQVMSQIANVKKDMIILEKSEFSALRAENEKIKLELHQLKQQVMDEVIKVRTDTKLDFNLEKSRVKELYSLNEKKLLELRTEIVALHAQQDRALTQTDRKIETEVAGLKTMLESHKLDNIKYLAGSIFTCLTVALGFYRLWI [MCUR1] |  | 52 | -0.0249 | 0.186 | -0.0232 | -0.133
MDDIFTQCREGNAVAVRLWLDNTENDLNQGDDHGFSPLHWACREGRSAVVEMLIMRGARINVMNRGDDTPLHLAASHGHRDIVQKLLQYKADINAVNEHGNVPLHYACFWGQDQVAEDLVANGALVSICNKYGEMPVDKAKAPLRELLRERAEKMGQNLNRIPYKDTFWKGTTRTRPRNGTLNKHSGIDFKQLNFLTKLNENHSGELWKGRWQGNDIVVKVLKVRDWSTRKSRDFNEECPRLRIFSHPNVLPVLGACQSPPAPHPTLITHWMPYGSLYNVLHEGTNFVVDQSQAVKFALDMARGMAFLHTLEPLIPRHALNSRSVMIDEDMTARISMADVKFSFQCPGRMYAPAWVAPEALQKKPEDTNRRSADMWSFAVLLWELVTREVPFADLSNMEIGMKVALEGLRPTIPPGISPHVCKLMKICMNEDPAKRPKFDMIVPILEKMQDK [ILK] | 50.1 | 50 | -0.135 | 0.274 | 1.36 | 1.76
